The supplement of paper PMC9170038

Tested on: MS2 coat protein
Assay: apparent KD of MS2 coat protein; designed switch direction (-1 OFF switch, 1 ON switch): -1; higher = weaker reporter binding
In short: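 Apparent KD, taken as the median over clusters for each design, was obtained by curve-fitting normalised cluster fluorescence. Designed RNA switches had been transcribed on Illumina chips by stalled E. coli RNA polymerase and titrated with SNAP-549-labelled MS2 coat protein, doubling from 0.7 or 1.5 nM to 3 µM.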

[1] = Eterna round: R95, input ligand: FMN 200 uM
[2] = Eterna round: R95, input ligand: microRNA oligo, concentration not stated
[3] = Eterna round: R95, input ligand: none
[4] = input ligand: microRNA oligo, concentration not stated

Row | Sequence | apparent KD of MS2 coat protein [1] [µM] | apparent KD of MS2 coat protein [2] [µM] | apparent KD of MS2 coat protein [3] [µM] | apparent KD of MS2 coat protein (input ligand: FMN 200 uM) [µM] | apparent KD of MS2 coat protein (input ligand: none) [µM] | apparent KD of MS2 coat protein [4] [µM]
1 | GGCCCUAAGGUCAGAUUCACAAGCUUUUUGCUCGUUUUAACAUGAGGAUCACCCAUGUCUAGUGGAUCUGAUCCUCA [Sensor v3, turn-off variant 2 (MOD of Indiso v.2)] (puzzle: Sensor v3, turn-off variant 2) | 0.0216 | 0.0118 | 0.0201 |  |  | 
2 | GAGUGCCGAGGAUAUACAAAUAUCCGCUAAUUAAUGCGAAAACAUGAGGAUCACCCAUGUAGAAGGCUGCACUC [AK-MS2ROC-r4-exclusion2-3] (Eterna round: R97, puzzle: Exclusion 2) |  |  |  | 0.0139 | 0.00944 | 
3 | UGAUCUAGCGGAGGAUAUACAUGAGGAUCACCCAUGUAGACUCCAUGACCGUAGUCGUGGAGCGUGUAGAAGGCCGCUAGAUCU [JL ENG2 3.72] (Eterna round: R96, puzzle: Exclusion NG 2) |  |  |  | 0.0192 | 0.0122 | 0.0103
4 | GUAACAUUAAAGGCUCGUGACAUGAGGAUCACCCAUGUAUGGACCGUUCCACUUACCGACAAGCUGUGAUCGUCCUU [Eternabot (L2) Solution 22] (Eterna round: R97, puzzle: Sensor, turn-off variant 1) |  |  |  | 0.0408 | 0.042 | 
5 | AGAUGGCGAGGAUAUACAUGAGGAUCACCCAUGUGAAUAAGAAGAGUGAGGAAGAAAAGUAGAAGGCGCUGUCA [Mat - Exclusion 3 - Mod of Salish D31] (puzzle: Exclusion 3) | 0.128 | 0.0646 | 0.0998 |  |  | 
6 | UACGAGCUAGGAUAUGCUUUGGGCUCGCUUUCCUUCGAUAAACUUGAGGAUCACCCAAGUAGAAGGAGCUUGUA [Mod 33 - Jieux - Exclusion 2] (Eterna round: R97, puzzle: Exclusion 2) |  |  |  | 0.0615 | 0.0259 | 
7 | CUGUGUCCGCAGGAUAUGUCAUCCUGAAGGAUCACAGAAGGGCGGACAUGAGGAUCACCCAUGUGAGCCAAAGA [EX6 A.11] (Eterna round: R97, puzzle: Exclusion 6) |  |  |  | 0.0167 | 0.0179 | 
8 | GCAAGCUUUUCGAUCCUCUACAUGAGGAUCACCCAUGUGCUCGAAUUGUUUGGUACUAUCACGAAAGUGAUAGUACA [Sensor, turn off variant 1 v.4] (Eterna round: R97, puzzle: Sensor, turn-off variant 1) |  |  |  | 0.936 | 1.15 | 
9 | GUAUGUUAUGAGGAUAUCGGUGAACAUACACAUCGAGAAGGCAUGACAUGAGGAUCACCCAUGUCGAGGAUGAA [Exclusion 6 - B - 18:e] (puzzle: Exclusion 6) | 0.0472 | 0.018 | 0.0237 |  |  | 
10 | AAAUUGUGAGGAUAUUAGUUGUACGUCAAUAGACGUAUAAGUGAGAAGGCACAUGAGGAUCACCCAUGUUCCUG [Omei Ex4 Mod of Mat's R95 mod of Omei] (Eterna round: R97, puzzle: Exclusion 4) |  |  |  | 0.0618 | 0.0168 | 
11 | AGACCACAUGAGGAUCACCCAUGUCAGGAUAUCGACUGAACAGCUUCGGCUGUUCAGUCGAGAAGGGACAAUUA [Brourdxlusion 8 - Jieux - Exclusion 1] (Eterna round: R97, puzzle: Exclusion 1) |  |  |  | 0.06 | 0.0527 | 
12 | GAAUAGGCAGGAUAUACAUGAGGAUCACCCAUGUGCCGGCGAUAGGUACGAUCGAAAGGUAGAAGGGCCUAAAC [ChP 13.04.2015 #8] (puzzle: Exclusion 3) | 0.0307 | 0.14 | 0.127 |  |  | 
13 | GGUGGACAUGAGGAUCACCCAUGUGAGGAUAUCGGCUGUCUACUCGCUGACGGCUGCUCGAGAAGGCGCAUUGU [Exclusion 1 V89] (puzzle: Exclusion 1) |  | 0.0386 |  |  |  | 
14 | AAAUCGCAAGGAUAUCGUCAGUCUGACAUGAGGAUCACCCAUGUUAUCUUGGUAUCAGAGCGAGAAGGUGCAAAGU [Erbied] (puzzle: Exclusion 5) |  | 0.0125 |  |  |  | 
15 | AAACCUCGUGUAAGGAUAUCAAGGCUUAGCGGGUGUGAGAAGGUACAUGAGGAUCACCCAUGUCAUGAUUUACG [mod2 score 1 eternabot] (Eterna round: R97, puzzle: Brourd's mod of Exclusion 4) |  |  |  | 0.798 | 0.252 | 
16 | GGUCAGACGGUAGGAUAUCCAUAUUGAGUGACCCUUUCAUAACAUGAGGAUCACCCAUGUCGGUGGGAGAAGGGCCGUACGGCG [salish99_ExNG02_R04_006] (Eterna round: R96, puzzle: Exclusion NG 2) |  |  |  | 0.205 | 0.411 | 0.214
17 | UGGGUACUCCAUAGAAGAGACAUGAGGAUCACCCAUGUAGGGCAAGCUUUUUGCUCGUCUUAGGUUGAGGGAUAGGA [JR_SV3TOV1_Sub015] (puzzle: Sensor v3, turn-off variant 1) | 0.166 | 0.0807 | 0.28 |  |  | 

Row | Sequence | apparent KD of MS2 coat protein [1] [µM] | apparent KD of MS2 coat protein [2] [µM] | apparent KD of MS2 coat protein [3] [µM] | apparent KD of MS2 coat protein (input ligand: FMN 200 uM) [µM] | apparent KD of MS2 coat protein (input ligand: none) [µM] | apparent KD of MS2 coat protein [4] [µM]
18 | GUGAAACAUGAGGAUCACCCAUGUGAGGAUAUGUUUAAGUAAUGAUGAAAGUAUAUAUACAGAAGGCACAAUGG [Mat - Mod of JL D72] (puzzle: Exclusion 1) | 0.142 | 0.0715 | 0.0644 |  |  | 
19 | UUUUAACAUGAGGAUCACCCAUGUGAGGAUAUCGUAUUUUUUAUUAAUAUUAAUAAAACGAGAAGGCACAUUUU [JMF 17] (Eterna round: R96, puzzle: Exclusion 1) |  |  |  | 0.0969 | 0.0655 | 0.0514
20 | AUGAUGCAGUGAGGAUAUACAUGAGGAUCACCCAUGUUUUUUUUUUUAGAUACACUCCUUUUUUUGUAGAAGGCACUAUGAGUA [Skinny design] (Eterna round: R96, puzzle: Exclusion NG 2) |  |  |  | 0.121 | 0.0463 | 0.024
21 | UUUCAGCAAGGAUAUACGGGCUGUGCUUUUCAUUUCUUACAACAUGAGGAUCACCCAUGUAGAAGGUGCAACUU [Ex2 #10] (Eterna round: R97, puzzle: Exclusion 2) |  |  |  | 0.11 | 0.0265 | 
22 | UUAGGCUGAAGAUCAAUUAAUUAACAUGAGGAUCACCCAUGUAAGGAUAUCAGCUCGUGUAGAGCUGAGAAGGUACAUGCAGCC [ExNG3/18-A3] (Eterna round: R96, puzzle: Exclusion NG 3) |  |  |  | 0.436 | 0.101 | 0.135
23 | UUGCCGCGAGGAUAUAUAGACGGGUUCAAUACGUGUCUCGGACUUGAGGAUCACCCAAGUAGAAGGCUUUUUAU [LRO-Excl2-12-mod _r4_621 by salish99] (Eterna round: R97, puzzle: Exclusion 2) |  |  |  | 0.0155 | 0.0147 | 
24 | UUUGUUUUGGUAGGAUAUACUUUUAAUUUCUCUUUCCUUACAUGAGGAUCACCCAUGUUUACAUUGUAGAAGGACCACUUUGUU [JR_ExcNG2_Sub050] (Eterna round: R96, puzzle: Exclusion NG 2) |  |  |  |  |  | 0.0159
25 | CCGGUAUAGGAGGAUAUAGGAGUCGAUAGACACCUAGAAGGCCUGACAUGAGGAUCACCCAUGUGUCCUACCGG [Fiskers Ex 6 - 96] (puzzle: Exclusion 6) |  | 0.0159 |  |  |  | 
26 | AAGAAACAUGAGGAUCACCCAUGUGAGGAUAUGUAAAAGAAAAUAAAAUAAAUAAUAAACAGAAGGCACAAAGG [Mat - Mod of Hog D18] (puzzle: Exclusion 1) | 0.0582 | 0.0336 | 0.0409 |  |  | 
27 | GCCAGAGCAGGAUAUCUAAUAUAUCACAUGAGGAUCACCCAUGUCCAGCGAAAGCUGGAGGGAGAAGGGCUCUGGC [Fiskers Ex 5 - 19] (puzzle: Exclusion 5) | 0.0536 | 0.0984 | 0.106 |  |  | 
28 | CUCCAUACAGGAUAUACAGGCGGUGGAGCCGUAUGAUCAACACAUGAGGAUCACCCAUGUAGAAGGGUGUGUAC [Eternabot (L2) Solution 25] (Eterna round: R97, puzzle: Exclusion 2) |  |  |  | 0.436 | 0.642 | 
29 | GUGUUGCGAGGAUAUAUAAGGGUAUGUUCUUAGGAUAUGGAACAUGAGGAUCACCCAUGUAGAAGGUGCAUAUC [JR_Ex2_Sub047] (Eterna round: R97, puzzle: Exclusion 2) |  |  |  | 0.0678 | 0.0339 | 
30 | GCAUCCAAUGUGAGGAUAUACCUCUGGAUACAUAGGUAGAAGGCACAUGAGGAUCACCCAUGUCCUAAGGAUGC [Fiskers BMX 4 - 28] (puzzle: Brourd's mod of Exclusion 4) |  | 0.075 |  |  |  | 
31 | CUAGCGAAUGUAGGAUAUCGGACUGUUUCAGUCUGAGAAGGACAUGAGGAUCACCCAUGUGUAGCUACGUGAGUAGCACGCUAG [JL ENG1 3.89] (Eterna round: R96, puzzle: Exclusion NG 1) |  |  |  | 0.0587 | 0.0275 | 0.0161
32 | CUUUUGUGAGGAUAUUAGUAGUAAAUAUAUAAAAUUACUACUGAGAAGGCACAUGAGGAUCACCCAUGUUCCUC [salish99_ex4_r3_055] (puzzle: Exclusion 4) |  | 0.0362 |  |  |  | 
33 | AAGAAACAUGAGGAUCACCCAUGUGAGGAUAUGGCCCGCCCGGCGUGAGCUGGUUUAAUCAGAAGGCACAAAGG [salish99_ex1_r4_014] (Eterna round: R97, puzzle: Exclusion 1) |  |  |  | 0.0448 | 0.0381 | 
34 | UAAAUGGUGUCAGGAUAUCCUGCAUAGUCUGCUGGAGAAGGGACAUGAGGAUCACCCAUGUAAGCCGGCAUGACUGAAUUCCUC [Atrice] (Eterna round: R96, puzzle: Exclusion NG 1) |  |  |  | 0.0507 | 0.0322 | 0.0233
